# In paper PMC1931443:
# How the values were obtained:
# [1] = target: DMRT1 (mouse) (UniProt Q9QZ59); test: competition; conditions: 40-fold excess unlabeled SELF; EMSA: 10 mM Tris-HCl pH 7.9, 100 mM KCl, 10% glycerol, 5 mM MgCl2, 1 mM spermidine, 0.075% Triton-X-100, 1 mM DTT, 1 ug BSA, 0.1 ug dI-dC, 75 ng plasmid DNA, 0.
# [2] = target: T1, DMRT5 (mouse) (UniProt A2A9A2); test: competition; conditions: 40-fold excess unlabeled SELF; EMSA: 10 mM Tris-HCl pH 7.9, 100 mM KCl, 10% glycerol, 5 mM MgCl2, 1 mM spermidine, 0.075% Triton-X-100, 1 mM DTT, 1 ug BSA, 0.1 ug dI-dC, 75 ng plasmid DNA, 0.
# T1 sequence: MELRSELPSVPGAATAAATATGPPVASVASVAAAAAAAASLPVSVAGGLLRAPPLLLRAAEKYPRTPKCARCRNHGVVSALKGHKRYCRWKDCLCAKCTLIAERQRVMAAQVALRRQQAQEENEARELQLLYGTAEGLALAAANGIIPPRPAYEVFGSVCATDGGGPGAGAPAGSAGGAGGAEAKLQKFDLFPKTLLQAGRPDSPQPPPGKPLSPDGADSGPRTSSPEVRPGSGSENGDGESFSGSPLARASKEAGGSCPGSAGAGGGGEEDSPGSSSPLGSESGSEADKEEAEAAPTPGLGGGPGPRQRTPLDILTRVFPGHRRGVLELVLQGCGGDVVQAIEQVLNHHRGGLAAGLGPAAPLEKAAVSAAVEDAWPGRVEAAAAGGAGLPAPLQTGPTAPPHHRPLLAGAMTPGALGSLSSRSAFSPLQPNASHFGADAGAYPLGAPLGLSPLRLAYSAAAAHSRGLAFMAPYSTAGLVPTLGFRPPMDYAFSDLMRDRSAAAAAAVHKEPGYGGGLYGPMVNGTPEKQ
# Chain of DMRT1 (mouse) (Q9QZ59 whole entry): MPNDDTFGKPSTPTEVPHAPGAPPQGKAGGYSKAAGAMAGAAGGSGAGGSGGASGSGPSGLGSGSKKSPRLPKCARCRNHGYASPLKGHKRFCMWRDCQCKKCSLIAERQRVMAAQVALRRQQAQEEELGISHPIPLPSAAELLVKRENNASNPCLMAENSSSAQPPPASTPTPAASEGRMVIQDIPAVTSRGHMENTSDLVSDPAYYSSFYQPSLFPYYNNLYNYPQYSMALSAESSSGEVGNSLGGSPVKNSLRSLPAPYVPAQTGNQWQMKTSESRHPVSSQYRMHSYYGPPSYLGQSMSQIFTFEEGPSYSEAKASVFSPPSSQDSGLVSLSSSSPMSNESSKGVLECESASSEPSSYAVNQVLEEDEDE
sequence,measurement,setting,value
"TCGAGATTTGATACATTGTTGC / TCGAGCAACAATGTATCAAATC [DMRT1 consensus (1RE, general gel shift)]",binding signal (relative to SELF),[1],1
same,binding signal (relative to SELF),[2],1
